In patent US20050095604A1 (published 2005):

Target: T1, endogenous beta-catenin of human HEK293 cells (human, UniProt P35222 2-781)
T1 construct: also called β-catenin
T1 sequence (looked up): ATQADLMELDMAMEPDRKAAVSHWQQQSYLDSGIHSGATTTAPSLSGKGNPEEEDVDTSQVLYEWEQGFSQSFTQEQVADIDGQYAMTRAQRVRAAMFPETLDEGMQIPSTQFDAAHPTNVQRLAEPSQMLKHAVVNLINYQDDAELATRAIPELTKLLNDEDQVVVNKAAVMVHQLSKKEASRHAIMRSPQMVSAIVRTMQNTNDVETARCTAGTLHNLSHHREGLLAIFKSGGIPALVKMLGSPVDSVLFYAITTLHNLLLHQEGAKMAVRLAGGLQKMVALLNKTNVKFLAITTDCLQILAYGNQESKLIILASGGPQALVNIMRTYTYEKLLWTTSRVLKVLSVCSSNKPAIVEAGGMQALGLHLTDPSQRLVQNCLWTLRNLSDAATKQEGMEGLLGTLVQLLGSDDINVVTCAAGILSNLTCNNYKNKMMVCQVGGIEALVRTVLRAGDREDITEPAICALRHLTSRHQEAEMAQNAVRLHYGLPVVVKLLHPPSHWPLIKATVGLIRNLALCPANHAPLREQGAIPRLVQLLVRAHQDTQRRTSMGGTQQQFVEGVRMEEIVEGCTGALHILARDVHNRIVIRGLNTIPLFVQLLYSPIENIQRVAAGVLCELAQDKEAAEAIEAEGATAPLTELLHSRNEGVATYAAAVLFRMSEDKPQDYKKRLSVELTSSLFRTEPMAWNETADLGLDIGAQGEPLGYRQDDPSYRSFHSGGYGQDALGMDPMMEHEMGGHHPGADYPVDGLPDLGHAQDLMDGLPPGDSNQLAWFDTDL
Assay: Talon cobalt-affinity isolation of His-tagged hPSF from 1% CHAPSO lysates of stable HEK293 cells, Western blot

binding result: no binding
B1: human presenilin stabilization factor (PSF) with C-terminal V5 and poly-histidine (6xHis) tags (other, not shown: small tags and cut ends)
chain: MGAAVFFGCTFVAFGPAFALFLITVAGDPLRVIILVAGAFFWLVSLLLASVVWFILVHVTDRSDARLQYGLLIFGAAVSVLLQEVFRFAYYKLLKKADEGLASLSEDGRSPISIRQMAYVSGLSFGIISGVFSVINILADALGPGVVGIHGDSPYYFLTSAFLTAAIILLHTFWGVVFFDACERRRYWALGLVVGSHLLTSGLTFLNPWYEASLLPIYAVTVSMGLWAFITAGGSLRSIQRSSCVRTDYLD
notes: Stably expressed in HEK293 (APP-695) cells (clonal line 2-7), solubilised in 1% CHAPSO and captured on Talon cobalt resin; Both the full-length (~25 kDa) and the processed (~15 kDa) forms were isolated; also called hPSF; PSF-V5
